Target: T1, DLL4 (DLL ECD His tag, R&D 1506-D4-050) (UniProt Q9NR61 27-529)
T1 construct: extracellular domain; bought
Experiment: BIACORE (SPR), DVD-Ig against DLL4

Row | Binder | Kd [nM] | koff [s⁻¹] | kon [M⁻¹ s⁻¹]
1 | DVD043 (bispecific antibody, human IgG1, kappa, DVD-Ig; N-term; VD VEGF (AB014), C-term; VD DLL4 (AB015); HC linker short, LC linker short; also called DVD-Ig DVD043; DVD043H) heavy: not shown light: DIQMTQSPSSLSASVGDRVTITCSASQDISNYLNWYQQKPGKAPKVLIYFTSSLHSGVPSRFSGSGSGTDFTLTISSLQPEDFATYYCQQYSTVPWTFGQGTKVEIKRTVAAPDIQMTQSPSSLSASVGDRVTITCRASQDVSTAVAWYQQKPGKAPKLLIYSASFLYSGVPSRFSGSGSGTDFTLTISSLQPEDFATTYYCQQSYTGTVTFGQGTKVEIKRTVAAPSVFIFPPSDEQLKSGTASVVCLLNNFYPREAKVQWKVDNALQSGNSQESVTEQDSKDSTYSLSSTLTLSKADYEKHKVYACEVTHQGLSSPVTKSFNRGEC | 8.4 | 0.000281 | 33400
2 | DVD470 (bispecific antibody, human IgG1, kappa, DVD-Ig; N-term; VD VEGF (AB014), C-term; VD DLL4 (AB015); HC linker long, LC linker long; also called DVD-Ig DVD470; DVD470H) heavy: not shown light: DIQMTQSPSSLSASVGDRVTITCSASQDISNYLNWYQQKPGKAPKVLIYFTSSLHSGVPSRFSGSGSGTDFTLTISSLQPEDFATYYCQQYSTVPWTFGQGTKVEIKRTVAAPSVFIFPPDIQMTQSPSSLSASVGDRVTITCRASQDVSTAVAWYQQKPGKAPKLLIYSASFLYSGVPSRFSGSGSGTDFTLTISSLQPEDFATTYYCQQSYTGTVTFGQGTKVEIKRTVAAPSVFIFPPSDEQLKSGTASVVCLLNNFYPREAKVQWKVDNALQSGNSQESVTEQDSKDSTYSLSSTLTLSKADYEKHKVYACEVTHQGLSSPVTKSFNRGEC | 1.03 | 7.02e-05 | 68400
3 | DVD476 (bispecific antibody, human IgG1, kappa, DVD-Ig; N-term; VD VEGF (AB014), C-term; VD DLL4 (AB015); HC linker long, LC linker short; also called DVD-Ig DVD476; DVD476H) heavy: not shown light: DIQMTQSPSSLSASVGDRVTITCSASQDISNYLNWYQQKPGKAPKVLIYFTSSLHSGVPSRFSGSGSGTDFTLTISSLQPEDFATYYCQQYSTVPWTFGQGTKVEIKRTVAAPDIQMTQSPSSLSASVGDRVTITCRASQDVSTAVAWYQQKPGKAPKLLIYSASFLYSGVPSRFSGSGSGTDFTLTISSLQPEDFATTYYCQQSYTGTVTFGQGTKVEIKRTVAAPSVFIFPPSDEQLKSGTASVVCLLNNFYPREAKVQWKVDNALQSGNSQESVTEQDSKDSTYSLSSTLTLSKADYEKHKVYACEVTHQGLSSPVTKSFNRGEC | 2.96 | 0.000167 | 56300
4 | DVD482 (bispecific antibody, human IgG1, kappa, DVD-Ig; N-term; VD VEGF (AB014), C-term; VD DLL4 (AB015); HC linker short, LC linker long; also called DVD-Ig DVD482; DVD482H) heavy: not shown light: DIQMTQSPSSLSASVGDRVTITCSASQDISNYLNWYQQKPGKAPKVLIYFTSSLHSGVPSRFSGSGSGTDFTLTISSLQPEDFATYYCQQYSTVPWTFGQGTKVEIKRTVAAPSVFIFPPDIQMTQSPSSLSASVGDRVTITCRASQDVSTAVAWYQQKPGKAPKLLIYSASFLYSGVPSRFSGSGSGTDFTLTISSLQPEDFATTYYCQQSYTGTVTFGQGTKVEIKRTVAAPSVFIFPPSDEQLKSGTASVVCLLNNFYPREAKVQWKVDNALQSGNSQESVTEQDSKDSTYSLSSTLTLSKADYEKHKVYACEVTHQGLSSPVTKSFNRGEC | 2.08 | 0.000232 | 111000
5 | DVD512 (bispecific antibody, human IgG1, lambda, L234A L235A, DVD-Ig; N-term; VD VEGF (AB014), C-term; VD DLL4 (AB073); HC linker short, LC linker short; also called DVD-Ig DVD512; DVD512H) heavy: not shown light: DIQMTQSPSSLSASVGDRVTITCSASQDISNYLNWYQQKPGKAPKVLIYFTSSLHSGVPSRFSGSGSGTDFTLTISSLQPEDFATYYCQQYSTVPWTFGQGTKVEIKRTVAAPQAVVTQESALTTSPGETVTLTCRSSTGAVTTSNYANWVQEKPDHLFTGLIGGTNNRAPGVPARFSGSLIGDKAALTITGAQTEDEAIYFCALWYSNHWVFGGGTKLTVLGQPKAAPSVTLFPPSSEELQANKATLVCLISDFYPGAVTVAWKADSSPVKAGVETTTPSKQSNNKYAASSYLSLTPEQWKSHRSYSCQVTHEGSTVEKTVAPTECS | 2.94 | 0.000757 | 258000
6 | DVD518 (bispecific antibody, human IgG1, kappa, lambda, DVD-Ig; N-term; VD VEGF (AB014), C-term; VD DLL4 (AB073); HC linker long, LC linker long; also called DVD-Ig DVD518; DVD518H) heavy: not shown light: DIQMTQSPSSLSASVGDRVTITCSASQDISNYLNWYQQKPGKAPKVLIYFTSSLHSGVPSRFSGSGSGTDFTLTISSLQPEDFATYYCQQYSTVPWTFGQGTKVEIKRTVAAPSVFIFPPQAVVTQESALTTSPGETVTLTCRSSTGAVTTSNYANWVQEKPDHLFTGLIGGTNNRAPGVPARFSGSLIGDKAALTITGAQTEDEAIYFCALWYSNHWVFGGGTKLTVLGQPKAAPSVTLFPPSSEELQANKATLVCLISDFYPGAVTVAWKADSSPVKAGVETTTPSKQSNNKYAASSYLSLTPEQWKSHRSYSCQVTHEGSTVEKTVAPTECS | 3.72 | 0.000454 | 122000
7 | DVD524 (bispecific antibody, human IgG1, lambda, DVD-Ig; N-term; VD VEGF (AB014), C-term; VD DLL4 (AB073); HC linker long, LC linker short; also called DVD-Ig DVD524; DVD524H) heavy: not shown light: DIQMTQSPSSLSASVGDRVTITCSASQDISNYLNWYQQKPGKAPKVLIYFTSSLHSGVPSRFSGSGSGTDFTLTISSLQPEDFATYYCQQYSTVPWTFGQGTKVEIKRTVAAPQAVVTQESALTTSPGETVTLTCRSSTGAVTTSNYANWVQEKPDHLFTGLIGGTNNRAPGVPARFSGSLIGDKAALTITGAQTEDEAIYFCALWYSNHWVFGGGTKLTVLGQPKAAPSVTLFPPSSEELQANKATLVCLISDFYPGAVTVAWKADSSPVKAGVETTTPSKQSNNKYAASSYLSLTPEQWKSHRSYSCQVTHEGSTVEKTVAPTECS | 9.45 | 0.000877 | 92800
